In patent US20140072613A1 (published 2014):

T1: PKG1β(h) (human, UniProt Q13976-2 1-686)
T1 sequence (looked up): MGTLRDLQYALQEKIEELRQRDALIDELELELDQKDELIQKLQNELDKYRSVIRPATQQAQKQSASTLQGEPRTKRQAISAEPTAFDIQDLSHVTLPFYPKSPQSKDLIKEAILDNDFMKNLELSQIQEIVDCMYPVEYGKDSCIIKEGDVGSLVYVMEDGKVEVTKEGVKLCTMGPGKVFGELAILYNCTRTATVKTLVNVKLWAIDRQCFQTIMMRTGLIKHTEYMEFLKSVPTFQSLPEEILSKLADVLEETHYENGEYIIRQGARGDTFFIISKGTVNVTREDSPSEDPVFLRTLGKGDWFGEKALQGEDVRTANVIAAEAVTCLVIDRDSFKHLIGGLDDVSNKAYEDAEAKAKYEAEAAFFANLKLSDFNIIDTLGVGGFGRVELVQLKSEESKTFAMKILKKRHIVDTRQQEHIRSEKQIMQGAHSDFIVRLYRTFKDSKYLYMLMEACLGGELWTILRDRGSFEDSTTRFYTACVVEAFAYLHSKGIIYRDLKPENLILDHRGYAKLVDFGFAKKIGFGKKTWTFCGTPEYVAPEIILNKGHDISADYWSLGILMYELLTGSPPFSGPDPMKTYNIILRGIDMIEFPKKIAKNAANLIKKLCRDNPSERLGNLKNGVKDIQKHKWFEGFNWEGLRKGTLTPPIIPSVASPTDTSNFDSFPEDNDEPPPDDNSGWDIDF

T2: ULK3(h) (human, UniProt Q6PHR2 1-472, limits assumed)
T2 sequence (looked up): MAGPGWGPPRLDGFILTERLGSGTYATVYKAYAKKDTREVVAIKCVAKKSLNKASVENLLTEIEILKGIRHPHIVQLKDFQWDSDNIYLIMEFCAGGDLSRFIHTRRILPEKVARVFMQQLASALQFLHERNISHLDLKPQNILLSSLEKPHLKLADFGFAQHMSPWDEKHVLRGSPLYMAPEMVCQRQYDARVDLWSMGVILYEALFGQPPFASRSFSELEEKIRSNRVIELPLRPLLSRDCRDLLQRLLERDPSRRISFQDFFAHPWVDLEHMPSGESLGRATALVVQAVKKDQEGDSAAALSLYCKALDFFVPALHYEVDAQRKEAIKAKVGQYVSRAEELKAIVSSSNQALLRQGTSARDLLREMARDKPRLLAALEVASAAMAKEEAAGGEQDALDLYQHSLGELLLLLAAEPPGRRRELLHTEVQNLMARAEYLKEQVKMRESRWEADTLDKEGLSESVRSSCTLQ

T3: MST1(h) (human, UniProt Q13043 1-487)
T3 sequence (looked up): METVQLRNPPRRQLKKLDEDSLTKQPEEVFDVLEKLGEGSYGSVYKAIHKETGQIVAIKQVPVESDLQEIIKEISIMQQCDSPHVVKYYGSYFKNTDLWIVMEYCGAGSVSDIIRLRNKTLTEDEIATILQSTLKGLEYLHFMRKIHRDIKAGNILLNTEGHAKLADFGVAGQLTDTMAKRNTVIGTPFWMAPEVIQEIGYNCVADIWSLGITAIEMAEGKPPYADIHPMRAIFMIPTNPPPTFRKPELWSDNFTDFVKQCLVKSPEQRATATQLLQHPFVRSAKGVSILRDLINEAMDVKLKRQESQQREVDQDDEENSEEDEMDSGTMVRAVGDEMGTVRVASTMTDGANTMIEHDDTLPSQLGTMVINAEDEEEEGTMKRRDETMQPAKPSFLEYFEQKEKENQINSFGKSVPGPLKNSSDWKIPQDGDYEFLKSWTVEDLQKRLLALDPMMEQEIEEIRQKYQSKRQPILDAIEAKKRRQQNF

T4: EphB2(h) (human, UniProt P29323 565-986, limits assumed)
T4 sequence (looked up): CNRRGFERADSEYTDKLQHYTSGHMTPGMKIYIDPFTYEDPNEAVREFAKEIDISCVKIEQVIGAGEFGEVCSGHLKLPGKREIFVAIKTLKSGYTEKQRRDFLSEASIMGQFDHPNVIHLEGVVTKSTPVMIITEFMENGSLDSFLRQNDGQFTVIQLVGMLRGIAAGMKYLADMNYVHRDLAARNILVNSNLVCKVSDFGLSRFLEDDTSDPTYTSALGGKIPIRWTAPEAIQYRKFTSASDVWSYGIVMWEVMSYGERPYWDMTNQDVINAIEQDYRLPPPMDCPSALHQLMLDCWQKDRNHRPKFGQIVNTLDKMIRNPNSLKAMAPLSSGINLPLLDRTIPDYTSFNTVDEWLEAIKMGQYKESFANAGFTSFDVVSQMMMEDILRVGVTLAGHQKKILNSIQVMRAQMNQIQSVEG


Assays:
Test in all cases: cell-based or functional assay
PKG1β(h) = biological target: T1, PKG1β(h)
MARK1(h) = MARK1(h) (human, UniProt Q9P0L2 1-795, limits assumed)
CDK9/cyclin T1(h) = CDK9/cyclin T1(h) (human, UniProt P50750 1-372; O60563 1-726, limits assumed)
ULK3(h) = biological target: T2, ULK3(h)
MST1(h) = biological target: T3, MST1(h)
CLK2(h) = CLK2(h) (human, UniProt P49760 1-499, limits assumed)
Fes(h) = Fes(h) (human, UniProt P07332 1-822, limits assumed)
EphB2(h) = biological target: T4, EphB2(h)
MELK(h) = MELK(h) (human, UniProt Q14680 1-340, limits assumed)
HIPK1(h) = HIPK1(h) (human, UniProt Q86Z02 158-555, limits assumed)
MSSK1(h) = MSSK1(h) (human, UniProt Q9UPE1 1-567, limits assumed)
AMPKα1(h) = AMPKα1(h) (human, UniProt Q13131 1-559)
Chain of AMPKα1(h) (Q13131 whole entry): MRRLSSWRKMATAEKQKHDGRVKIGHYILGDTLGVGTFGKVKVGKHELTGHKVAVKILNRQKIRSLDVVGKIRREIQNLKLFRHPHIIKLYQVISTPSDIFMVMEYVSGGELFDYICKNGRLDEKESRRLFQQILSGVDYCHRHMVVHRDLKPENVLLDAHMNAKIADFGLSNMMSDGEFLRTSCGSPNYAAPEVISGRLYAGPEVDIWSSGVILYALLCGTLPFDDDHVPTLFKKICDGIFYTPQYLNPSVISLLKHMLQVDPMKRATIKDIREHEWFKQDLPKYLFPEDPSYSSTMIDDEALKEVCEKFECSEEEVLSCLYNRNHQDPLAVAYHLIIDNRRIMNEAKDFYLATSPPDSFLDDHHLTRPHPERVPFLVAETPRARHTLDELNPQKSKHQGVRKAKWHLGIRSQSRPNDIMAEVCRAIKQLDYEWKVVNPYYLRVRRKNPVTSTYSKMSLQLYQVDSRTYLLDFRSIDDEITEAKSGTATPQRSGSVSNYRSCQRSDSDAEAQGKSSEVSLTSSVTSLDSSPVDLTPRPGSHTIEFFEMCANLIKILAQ

Chain of CDK9/cyclin T1(h) (P50750 whole entry, chain 1 of 2): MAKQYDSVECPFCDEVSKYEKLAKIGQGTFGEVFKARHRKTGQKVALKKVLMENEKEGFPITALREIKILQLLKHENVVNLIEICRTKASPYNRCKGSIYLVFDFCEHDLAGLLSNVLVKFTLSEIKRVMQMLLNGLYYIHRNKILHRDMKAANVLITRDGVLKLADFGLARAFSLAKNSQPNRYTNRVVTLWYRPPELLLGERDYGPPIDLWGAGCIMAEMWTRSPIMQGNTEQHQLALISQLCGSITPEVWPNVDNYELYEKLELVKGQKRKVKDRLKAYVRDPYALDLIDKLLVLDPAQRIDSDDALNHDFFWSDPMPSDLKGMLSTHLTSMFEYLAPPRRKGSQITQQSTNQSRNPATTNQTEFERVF
Chain of CDK9/cyclin T1(h) (O60563 whole entry, chain 2 of 2): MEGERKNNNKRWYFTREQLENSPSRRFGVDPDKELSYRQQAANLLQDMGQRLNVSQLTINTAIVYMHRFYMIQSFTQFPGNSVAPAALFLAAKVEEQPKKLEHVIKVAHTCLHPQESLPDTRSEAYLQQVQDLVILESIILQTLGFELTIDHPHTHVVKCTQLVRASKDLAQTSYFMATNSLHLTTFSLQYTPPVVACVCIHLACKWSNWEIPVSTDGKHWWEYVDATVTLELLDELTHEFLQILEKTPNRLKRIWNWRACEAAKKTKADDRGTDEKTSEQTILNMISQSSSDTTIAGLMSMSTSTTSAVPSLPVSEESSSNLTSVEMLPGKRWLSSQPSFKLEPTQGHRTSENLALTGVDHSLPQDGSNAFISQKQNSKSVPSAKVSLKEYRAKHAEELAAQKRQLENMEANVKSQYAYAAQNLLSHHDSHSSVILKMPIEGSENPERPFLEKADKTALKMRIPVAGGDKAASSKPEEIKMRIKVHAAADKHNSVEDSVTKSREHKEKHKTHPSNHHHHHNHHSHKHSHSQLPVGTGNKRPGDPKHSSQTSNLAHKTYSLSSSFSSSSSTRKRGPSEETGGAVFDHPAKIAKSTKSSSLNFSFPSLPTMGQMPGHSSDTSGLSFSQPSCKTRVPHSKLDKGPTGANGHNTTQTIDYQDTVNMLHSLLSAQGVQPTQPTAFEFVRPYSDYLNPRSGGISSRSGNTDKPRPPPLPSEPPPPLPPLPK
Chain of MARK1(h) (Q9P0L2 whole entry): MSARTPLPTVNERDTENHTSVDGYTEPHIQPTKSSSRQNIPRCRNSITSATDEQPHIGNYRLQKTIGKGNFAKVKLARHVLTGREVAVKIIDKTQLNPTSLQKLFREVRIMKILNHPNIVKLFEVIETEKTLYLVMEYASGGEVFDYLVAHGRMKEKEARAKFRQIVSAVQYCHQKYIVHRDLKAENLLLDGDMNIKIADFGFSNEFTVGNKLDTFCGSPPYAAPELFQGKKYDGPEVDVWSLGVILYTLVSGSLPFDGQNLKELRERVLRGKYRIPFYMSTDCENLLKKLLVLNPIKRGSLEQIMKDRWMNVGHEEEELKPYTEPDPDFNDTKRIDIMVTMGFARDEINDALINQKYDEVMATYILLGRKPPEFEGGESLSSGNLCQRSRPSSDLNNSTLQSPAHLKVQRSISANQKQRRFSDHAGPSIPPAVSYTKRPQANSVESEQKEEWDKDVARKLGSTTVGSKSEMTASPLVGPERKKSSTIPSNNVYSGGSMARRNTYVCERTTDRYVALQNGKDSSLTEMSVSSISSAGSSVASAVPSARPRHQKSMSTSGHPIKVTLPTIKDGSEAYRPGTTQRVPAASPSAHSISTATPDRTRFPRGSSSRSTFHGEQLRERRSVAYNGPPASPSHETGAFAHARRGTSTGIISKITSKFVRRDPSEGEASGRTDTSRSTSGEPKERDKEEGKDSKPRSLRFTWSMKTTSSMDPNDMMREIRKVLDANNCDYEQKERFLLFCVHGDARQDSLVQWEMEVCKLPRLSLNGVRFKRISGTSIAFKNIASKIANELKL
Chain of MELK(h) (Q14680 1-340 limits assumed): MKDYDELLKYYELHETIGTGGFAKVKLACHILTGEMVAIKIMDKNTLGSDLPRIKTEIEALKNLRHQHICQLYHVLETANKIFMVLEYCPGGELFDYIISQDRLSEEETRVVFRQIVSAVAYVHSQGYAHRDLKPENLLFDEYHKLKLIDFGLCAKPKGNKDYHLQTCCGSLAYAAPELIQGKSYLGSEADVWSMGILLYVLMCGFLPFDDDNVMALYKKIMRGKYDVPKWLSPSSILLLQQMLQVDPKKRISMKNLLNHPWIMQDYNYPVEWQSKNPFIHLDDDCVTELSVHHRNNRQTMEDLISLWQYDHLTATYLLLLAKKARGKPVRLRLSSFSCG
Chain of Fes(h) (P07332 whole entry): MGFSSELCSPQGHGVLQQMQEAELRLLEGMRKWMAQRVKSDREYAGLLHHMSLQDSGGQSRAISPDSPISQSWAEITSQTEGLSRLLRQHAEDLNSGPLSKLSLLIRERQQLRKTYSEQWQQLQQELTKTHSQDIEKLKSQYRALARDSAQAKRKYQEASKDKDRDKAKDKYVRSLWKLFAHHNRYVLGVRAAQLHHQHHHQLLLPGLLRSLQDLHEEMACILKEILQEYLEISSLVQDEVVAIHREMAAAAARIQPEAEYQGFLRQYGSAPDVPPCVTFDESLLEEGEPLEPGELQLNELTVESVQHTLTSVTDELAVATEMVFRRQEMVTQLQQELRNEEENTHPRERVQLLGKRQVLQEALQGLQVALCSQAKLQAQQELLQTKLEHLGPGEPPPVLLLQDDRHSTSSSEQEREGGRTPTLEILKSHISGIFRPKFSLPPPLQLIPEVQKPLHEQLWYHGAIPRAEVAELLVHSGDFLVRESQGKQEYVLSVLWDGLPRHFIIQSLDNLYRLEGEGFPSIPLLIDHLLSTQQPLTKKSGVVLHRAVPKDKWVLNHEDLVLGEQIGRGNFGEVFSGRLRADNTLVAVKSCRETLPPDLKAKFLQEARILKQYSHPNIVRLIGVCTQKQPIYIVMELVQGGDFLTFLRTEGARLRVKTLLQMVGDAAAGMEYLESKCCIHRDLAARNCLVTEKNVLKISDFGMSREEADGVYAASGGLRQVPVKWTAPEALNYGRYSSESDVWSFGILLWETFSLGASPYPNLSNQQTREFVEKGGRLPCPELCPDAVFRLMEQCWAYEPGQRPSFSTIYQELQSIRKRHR
Chain of CLK2(h) (P49760 whole entry): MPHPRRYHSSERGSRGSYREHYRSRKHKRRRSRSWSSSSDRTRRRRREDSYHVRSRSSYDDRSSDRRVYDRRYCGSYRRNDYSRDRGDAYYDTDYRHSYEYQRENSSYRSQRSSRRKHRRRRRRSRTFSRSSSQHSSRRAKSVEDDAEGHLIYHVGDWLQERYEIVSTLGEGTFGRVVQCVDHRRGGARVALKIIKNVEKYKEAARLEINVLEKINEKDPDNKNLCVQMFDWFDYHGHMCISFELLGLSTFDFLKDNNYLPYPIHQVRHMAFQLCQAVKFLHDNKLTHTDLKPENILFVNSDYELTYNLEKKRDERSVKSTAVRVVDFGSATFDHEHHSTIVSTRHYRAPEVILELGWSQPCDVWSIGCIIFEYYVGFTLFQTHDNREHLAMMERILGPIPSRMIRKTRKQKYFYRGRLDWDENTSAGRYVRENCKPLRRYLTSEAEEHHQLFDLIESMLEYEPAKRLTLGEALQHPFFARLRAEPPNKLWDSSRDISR
Chain of MSSK1(h) (Q9UPE1 whole entry): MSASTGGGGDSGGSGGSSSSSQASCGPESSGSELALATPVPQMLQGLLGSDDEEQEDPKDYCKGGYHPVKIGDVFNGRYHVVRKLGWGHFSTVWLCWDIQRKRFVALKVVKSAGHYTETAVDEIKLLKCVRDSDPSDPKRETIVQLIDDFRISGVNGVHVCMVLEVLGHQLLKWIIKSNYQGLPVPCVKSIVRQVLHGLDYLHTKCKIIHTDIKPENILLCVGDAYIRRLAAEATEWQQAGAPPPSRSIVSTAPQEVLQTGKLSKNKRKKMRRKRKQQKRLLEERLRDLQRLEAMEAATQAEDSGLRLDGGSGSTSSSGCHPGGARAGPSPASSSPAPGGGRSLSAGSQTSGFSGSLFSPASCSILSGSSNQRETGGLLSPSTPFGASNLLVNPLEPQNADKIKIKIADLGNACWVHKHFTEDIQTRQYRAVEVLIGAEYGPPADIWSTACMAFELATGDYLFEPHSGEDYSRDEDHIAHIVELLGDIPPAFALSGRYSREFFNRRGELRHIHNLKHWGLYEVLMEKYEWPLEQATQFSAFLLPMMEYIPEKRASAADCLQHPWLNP

Binder | % activity, 100 µM (PKG1β(h)) [%] | % activity, 100 µM (MARK1(h)) [%] | % activity, 100 µM (CDK9/cyclin T1(h)) [%] | % activity, 100 µM (ULK3(h)) [%] | % activity, 100 µM (MST1(h)) [%] | % activity, 100 µM (CLK2(h)) [%] | % activity, 100 µM (Fes(h)) [%] | % activity, 100 µM (EphB2(h)) [%] | % activity, 100 µM (MELK(h)) [%] | % activity, 100 µM (HIPK1(h)) [%] | % activity, 100 µM (MSSK1(h)) [%] | % activity, 100 µM (AMPKα1(h)) [%]
KAFAKLAARLYRKALARQLGVAA [MMI-0400] | 53 | 120 | 235 | 147 | 6 | 116 | 16 | 22 | 17 | 91 | 75 | 87
FAKLAARLYRKALARQLGVAA [MMI-0300] | 50 | 132 | 91 | 167 | 14 | 103 | 20 | 18 | 16 | 74 | 77 | 71
